From the NTF2 design screens of Basanta et al. (2020) come the findings set out here.

The nature of the data set: protease stability score; higher = more stable; yeast display proteolysis, trypsin and chymotrypsin.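 Also: relative to predicted unfolded state with 0 unfolded-like and 1 meaning tenfold more protease.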
The sequence “SEEKKFLEKAHREILHLYKTGDEDRMSELADPDVRMRLVINGQERHHHGREEFERVFREMLDRFGVKHVEDEDSDLVNGQVHIKGTERFNGKEVRFNIIIVWVDGRVHMLSVEYR” came in with a protease stability score of 0.264.
To “SEEKKFSMEMLELLLHLLLTGDWDKLNKEFDPDYRLIIGDKETIGRESVRERLRLEIERIDHIHDVKIEDWKVQGDKAHIRLRVDGNIDGKRKEFESELIVIIVDGRMKSVRIIIK” belongs 1.97; to “SEEKKHVEEVARHILHLFLTGDEELWSNMADPNMRYLWNGREIVGRDLVREQNKELRTHSIEITHIEVFDGRARVRVNVDYQIGDKRINTHSLVIIVIINGRIESVFIKHD”, 1.27.
The value for “SEEKKLYDLAWELLLQSEKTGNEEIFERLADPHVRSHINGVDYIGRERFSELAHEINRELRIEDIHLHDVDLQGDKVNMSGSLTGHVNGKRHEYTMKIHFEKINGRWIIRSVSWE” was 1.39; that for “SEEKKQSDEAWELYIKSVETGDFRMLHELLDPNVKIHIGDKDIHGREYIMEHMLKFGVTTQSRFEVKDIKLQGDFVIIHGHIRSIFHFNGRTLRVEHDVEIFATKFDGRWWTHSVEVN” was 1.18; that for “SEEKKWEDDFMEDFLRAFHTGDFHRLLELLDPHVRIEINFENRKIDLIGREEFEKWMRRVKNARFHVEHWHSINGVNFSDTVLRYGDKEQKTELIFHVYNGKVKHIDVEFH” was 2.26.
In turn, “SEEKQDVDEFIKRVIETLETGDWRNRHDLLDPNVRIDIDGVELIGRHIALELDWYFLRHARVRMYIRHVNVQGEYMDVDGRLHIHQGDKNIHIETRLIVHKINGRWLIKSIELR” had a protease stability score of 2.87.
“SEEKRDSHQAIHLFIKNRVTGNWKDLYKNVDPHARLEIGDKHFHGRELFVRLMLELGVDHFDIESVDIQGDFIHIKGQIDVNGRTLDVELVAWKYNGRWYEHSVIIK” showed a protease stability score of 1.16.
The value for “SEEKRIDQHFTEQLDRLIETGDEEQLNKLADPHARLIFNGRTEHGREESHKLRHELLERWGHDRVHVELKDMEVQGDKLIVHTVIQINGVKFHVEIIVRKINGRWKMTEVRII” was 0.314; that for “SEELEHAERLDRMIAKAYSTGDEDVFRELLDPHVKIHDEDHHSHGMEWIRYHIERFKNVRSSVEVRRYHVQGNKIFSDGVFRLQVGDKDITRRVLFVVLKVDGRWIMESIHIE” was 1.08.
The value for “SEELELAKWLLEEWIRAVETGDERTLKELADPDVKMHIGDKNHIGWEEYVRFLRHLRITVRRMEVKHMHVFDGRIHIHGHFDIEINIGDKHLRRHHDVEIILVVVDGKLTSIEIRNH” was 1.5; that for “SEELRILVELVSKFYDAMKTGDEKTLKELADPNMRIIVGDKVLHGMESLKTHLKRIDHIYVHHFDYKKVDVQGDKVHVRGHSNLVLEFENHREEVIIHENWIVTKYNGRWSLESLEIR” was 1.49.
“SEEMHWAKEFYKALLKSWRTGDEELIKDLMDPHVRLHYGDKELHGREEFVRFIQEHVSRVDHIDIHIDDMKLQGNKVHVDGIIIIHVNGRDINIRSEYIIYKVDGRWHLETVHIH” registered a protease stability score of 1.59.
With “SEENEAAKLVIEKLNHSWKTGDWRLSEKLMDPDVRVHINGQDLHGREQARKFLEEIRLHMRDVKVKEIRIVDGRLETHGHVHIELIFDGRVFRIERDVESVVLKFNGKWTLESLEVI”, the protease stability score was determined as 1.21.
The value for “SEENEHLHHLMRLVIEMFETGDEDRWYKLADPNTRMEVDGREFIGREEVIKFLRNLGVNHFWIDDVDIINGRAHIRSTLRFNGQERDLNINLHFVDGKLKREKWIIR” was 0.841; that for “SEENELAERFFKELRDHFETGDEDVLDEMADPNMKLHINGRNFHGMHVYSKLARWLVDHWRSEFKVRRIEVQGNKIIIDSQLTLHIDGQRIIHDTRMESEKVNGKWLLRQFIVV” was 1.71.
“SEENEVIHRVIYYWIRAMKTGDEHLVSRLFDPNARHEIDGVDHVGWEEILKFFRRFDHLHHFHVNHIESHGDKIILDGRVDGEVNGQHLRFHVEIISLKVNGRWINQSEHVH” displayed a protease stability score of 1.81.
To “SEEQDWLREALEIFEKTIHTGDEDTSKELADPHVRSIINGKDFVGMEIWTKILEELNKRYDHIELVFHKVENINGRVIIHGTDTIRVDGVERKIDTIIYARKVNGKWLSKSVEMR” belongs 1.34; to “SEEQEEMRKLLKEFWHHTQTGDEDSFKRLADPDVKLRIDGKNYHGREATEFFTRRFDVIHDLRIHHMTIQGDWVRLEGTMHIEVGNYHDTKDVRIIILKYNGRWVNHEVRIH”, 0.741; to “SEEQEHTREAMEVYLHLMHTGDWDRFRELVDPNVRMNINGVDLHGWEELTRFMEIFWRDLGFDHFKIHEMRIYGEKSHIRGESIIGDKSREVHIHVVIVNGRIKSEKFVET”, 0.83.
In the case of “SEEQEITEHFSHLWLEWYLTGDFHKMLKFADPNTKMHIGDKHDHGMERYQEYERRFLEQYKGAKIYIKTVEHYDGRVVIDNIFRFDGREYQLIIEIIVVDGRLKSVHSDMK”, the protease stability score worked out at 1.25.
To “SEEQEKSEEFWRLVVEFLLTGDEHQILNLLDPNVLTEIGDKKYHGRELASEVLRRYADEIRLKEVELHDRDEVNGVLHLHTVVRGEYNGREINLESHWELEKVDGRWHIKRVEIR” belongs 1.6.
To “SEEQELLKKLAHENHESQRTGDEDFFHKLADPDARIRVGDKEIHGMEKVLEFWKTFRRQFKGLVVHLEDSHVINGQTFLHRNVNFNGVEEELEIILVVVDGRIKSIEIHLRRR” belongs 0.653; to “SEEQENAERILRMWIHALETGDEHTQKRLLDPNVRDEVNGVEFHGRERAVKLMNDLHEELRIKDWIPRDIHLVNGVLILHVEVRLEVDGQSRNHEVIIVIKKVNGRWFIHRIHVR”, 1.45; to “SEEQEVARDFFKILTHFHQTGNEEIVHELFDPNVRLHVGDKEVHGREEFIKVERELRTDDMHLRHVELQGEFIRIDVRAKGRVNGRDLEFHVHIVVRKVNGRWILTSLHIK”, 0.446.
The value for “SEEQHHLYSVFVRLIRNHWTGNERELHELADPNTRHTVGDKTYHGMEHVAWLLTEWVKEARLEIILRDVHVFDGRVESRIEFRLRYGDFKTTHEVRVEVNVVDGRLKEMEIDIN” was 1.43; that for “SEEQHHVEKVLWDFSHALMTGDWETVEDLVDPNVRIHINGKDFHGREEFHRLVREIRVHVEINLKSVEHIDGQATADTDVIVHLDVGDKQIDRRTRTEVIQQKFDGKWLIHTIIHR” was 0.956; that for “SEEQRLSEELFKRLVDYLLTGDWHSLKELLDPHVKVVVNGKEEIGRERMARHWLELHEKVPNMKSEFRLRYYEIQGDKAHYEVEIILHVNGRIRHIDIEVVMEKVDGRWMLHSITIR” was 1.3.
“SEEQTRLEEETRLLIELLTTGNEEEWARMFDPHARVDLHIGDKTIHSIGRENISELVRLLRHWLGVNHNHSTQLRVIDGVSVLHTESKVGDKHSKVTWIFVIVDGRLKTMEIRVRID” yielded a protease stability score of 1.33.
Regarding “SEERAKKVAKKLMEAFVKGNKDDAKDALQEDVQLHIAGTTYHGPKAVEKLIEFWQRVGVEVKVQEVRVKGNHVEIQTQVHLGDNTTTVRYKIQVEGDKVKKLQLNFSEEVFKQAKDG”, the protease stability score is 2.
To “SEERDHARRALNKMWKAIETGDEDTFEKLMDPDVRIEIGDKEIHGRELYVKIWQEMRFHIRRTRITDSKTFNGRVDIEFEEDFEIIVGDKIERYDYRVTFHSLKVNGRWEHSSMRLH” belongs 0.202.
“SEEREDIREIIEILLHHIHTGDWREVTNLMDPNALLVYGDKIFIGREEFHKVIKRHSEEWRIHHVELKDIEVQGNKAHVDGRLDGEIDGRRVTLTTEIIAVKINGRWHVHEIVLK” returned a protease stability score of 1.23.
The sequence “SEEREDSKKFLELVLTSWITGDWRQINKNFDPHARSHVGDKEIHGMDHVAHRMNEHLERADHIHFYLEDEHIQGNKIHVDGILQLVINGVDIRMRIRLVVLKINGRWQVHSIEIK” gave a protease stability score of 1.14.
The value for “SEEREEFEHWAKLVVHLLLTGNWEDFVKLLDPDTRFRDEDEETVGREEVEKAVNRLLDRVDHIKSVHIRHLDVINGRAFMHGQLVGHVDGRETHTEVRIKLVVVNGRIKSLQIDYK” was 1.99; that for “SEEREKAERISRTLFFNFFTGDEDDWNKRADPTDRFIIGDKELVGMEEISKFLKHLRVHHEQLSDLRINLQGDKLHSHLDGYVDIEFNGRRRRTRVIIIIVVFKVNGRWTIEQFEVEFH” was 1.73.
The value for “SEERERVRKIHEWLVRFLETGDEESFNHLADPNMRLIVWYNGVNIVFIGRESWREFLRLFREEMRLHRIRVHHVDVQGEKVTSDTRNDGEVNGQRTEFETHVEVVLINGRLKLVLLEFK” was 2.33; that for “SEERHAVERYTEELARAISTGDEEKRLELLDPHVRYLQGDKHIHGRDEVWRHEHRQMEDLGVTRIEMRIRHIRIFNGRVEIEGEVRIGEFEMHFIIYVLKIDGRWIITQEEYS” was 0.393.
To “SEERHELERTLKRYQDALITGNEEQMEKLIDPNVRTRIDGVDLIGMELVIEELVEWLDRYPNVRIHSHIHEVRFQGDKADIDSRLHLIFDGQEYRLHTRIHIWKFNGRWVLTHSEID” belongs 0.884; to “SEERHLEELMYKWVRQMIETGDEDLERKLADPHVRSDINGVDLHGREEMIKEIKRLEDWLGIDHREFKTITFINGRIHVHIKLNVNGKDIKSIHIYDVIDGRLKEVSVRFR”, 1.19.
“SEERKELKDIADEIFERHLTGDWKTFLRLADPNVRLQVNGKDIHGREEVVRWLNEIRYHHLTIHDRTVVDGVVISDVEEDGQVNGQKSRYRVHYVFVVVDGRFKSIHVTIT” returned a protease stability score of 1.3.
To “SEERSRVLHYLSLFIHFLETGDWKALYELMDPDVRIHVGDFELHGRHIFVRHLRDLGIKHVEESIRVRRMILIDGVIHMDGHLERHLIVGDKRVDERHEVHEVILKVDGKWFVHSIHVK” belongs 1.14; to “SEESEHEEIIAEVTLELLATGDWRTLYELFDPNVRVHVGDKRSIGREQFVKIWKEFLEKFKNVVYKFKDIKWINGVVHIHMTLEYNGRRIEVNIHNFVYDGKIEHIHIEFKHL”, 1.66.
Sequence “SEESEKLERMMRLIMHLLWTGDEETFKRLADPDTRFIYGDFEVHGREDVSRMWIKLLNELRIHSLHVEEVHTIDGRIHAKTEVDGRYNGQHERTKLELIIVIINGRIHTVEIRPK” gave a protease stability score of 1.22.
The sequence “SEETEETERVEREISHARLTGDEQFLKEMLDPNTRLLINGVILVGREALEHFVREMRVERVEVKDVRVQGDKLHIDTTSDVHYNGRRWTIKTHLIMVKVDGRWLMESVEFK” gave a protease stability score of 1.62.
In turn, “SEETEFAKEMLDIIFNLLRTGDWEYLVRLMDPHVRVIYGDKVTHGRDIIQYMHEHIRIRHLEFRHFDVIGDKINVDGRMEGEVNGRHDKTEMHIILLKINGRWSLHSIEIR” showed a protease stability score of 1.39.
On to “SEETEHIQKVMKDYIELVLTGDEEKWIHLADPHTRLILLFDGKEIHTHGWDRLIKVWQRIMEELGVDKVEIRMERVRSYGDKAESDVESRYNGRTHETEVTILVIDGRIKMVEVRFH”, for which the protease stability score came to 1.14.
The value for “SEETEIIERAMKILLEILETGDEDRQRELMDPHYRLLIGDKVFHGREWAIKWAREIRVDRVELEDREIQGEKLLLHGHIHIRVGDKHHTMEVLIIVEKIDGRWRTHSRHVK” was 0.651.
